Target: the molecule itself
Experiment: crystal structure

B1: LIN-42 N-terminus residues 41-315 (domain or fragment, C. elegans)
chain: GAMDPEFNTWSSSSVEFLDDADDNRLLFTCTFTLPHGTVLSSATYADGFHEQYLTIGDNFLARLEPKGQSFILSAAAASVKQRIFARVTMPDGALRACELLCEFETDRAKITVLALRSAFSLQASHVSSNFHVFTFITKHSSTCALTHIDYASIPYLGLLPTDLIGKSLLAFVYSPDVHVVRQAHIDLHNSRGKIVKSIADLRLVAHNGSILRCQTEWSAYVNPWTRKMELVVARHRICSLPIGDSDVISSPPPGIQSNTLPPVMAKTFEDELRTIMNKPVP
binding result: binds
